We go through one molecule from paper PMC3197213 (Structure (London, England : 1993), 2011).

This assay has as its target rat syntaxin-1A SNARE motif (residues 191-253) (rat, UniProt P32851 191-253). The experiment in a line: NMR titration.

A value given as a limit tells only on which side of the number the result lay.

Sequence of rat syntaxin-1A SNARE motif (residues 191-253) (P32851 191-253): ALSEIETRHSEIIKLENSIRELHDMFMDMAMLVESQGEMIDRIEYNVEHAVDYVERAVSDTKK

B1: Rat Munc13-1 MUN-CD module (1148-1407,EF,1453-1531 fragment) (domain or fragment)
chain: not shown
The term Kd denotes the concentration at which binding is half-saturated. A low value points to higher affinity. For B1, the dissociation constant (Kd) was greater than 300 µM.
